Results on 11 molecules are retold here after publication PMC10853764.

Data set [1] concerns the target Caulobacter crescentus full length DriD, tag-free (Caulobacter crescentus). Kind of data set: mass photometry.
Data set [2] has the same target. The data set is described as follows: cross-linking.
Data set [3] has as its target DriD(L10E) with His-tag (Caulobacter crescentus). Kind of data set: SEC. (In general: Size exclusion chromatography separates by hydrodynamic size, large species first.)
The target in data set [4] is Caulobacter crescentus full length DriD with His-tag (Caulobacter crescentus). Kind of data set: SEC.
Data set [5] deals with DriD(V73P-F74P) with His-tag (Caulobacter crescentus). Kind of data set: SEC.
For data set [6], the target named is T1, DriD WT (Caulobacter crescentus, UniProt Q9A999 5-331).
T1 sequence: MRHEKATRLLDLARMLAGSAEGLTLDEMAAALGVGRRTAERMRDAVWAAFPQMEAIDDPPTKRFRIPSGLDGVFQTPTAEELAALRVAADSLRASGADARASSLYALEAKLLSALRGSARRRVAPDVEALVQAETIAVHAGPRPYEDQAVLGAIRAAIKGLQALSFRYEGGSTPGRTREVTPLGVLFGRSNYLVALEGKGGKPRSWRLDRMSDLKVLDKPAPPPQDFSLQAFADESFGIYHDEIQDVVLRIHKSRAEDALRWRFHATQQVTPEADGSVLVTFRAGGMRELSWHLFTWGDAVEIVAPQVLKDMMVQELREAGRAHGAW
Kind of data set: X-ray crystallography 2.74 A.

For data set [7], the target named is T1, DriD WT. The data set is described as follows: fluorescence polarization. (In general: Fluorescence polarisation rises when a labelled molecule tumbles more slowly, as on binding a larger partner.)
Data set [8] addresses T1, DriD WT. The data set is described as follows: fluorescence polarization. The source holds these as a separate data set.
The next data set has as its target T2, DriD(E40K) (Caulobacter crescentus, UniProt Q9A999 5-331, E44K).
T2 sequence: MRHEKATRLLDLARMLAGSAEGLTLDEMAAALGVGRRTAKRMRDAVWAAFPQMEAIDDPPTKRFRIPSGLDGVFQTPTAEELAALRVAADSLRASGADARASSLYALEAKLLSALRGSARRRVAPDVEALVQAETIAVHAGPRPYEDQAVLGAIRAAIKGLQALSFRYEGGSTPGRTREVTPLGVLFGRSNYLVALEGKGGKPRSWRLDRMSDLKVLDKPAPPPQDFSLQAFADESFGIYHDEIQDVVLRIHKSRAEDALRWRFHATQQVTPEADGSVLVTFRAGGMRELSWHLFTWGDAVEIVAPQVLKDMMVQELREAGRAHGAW
Kind of data set: fluorescence polarization.

The next data set concerns the target T3, DriD(E40A) (Caulobacter crescentus, UniProt Q9A999 5-331, E44A).
T3 sequence: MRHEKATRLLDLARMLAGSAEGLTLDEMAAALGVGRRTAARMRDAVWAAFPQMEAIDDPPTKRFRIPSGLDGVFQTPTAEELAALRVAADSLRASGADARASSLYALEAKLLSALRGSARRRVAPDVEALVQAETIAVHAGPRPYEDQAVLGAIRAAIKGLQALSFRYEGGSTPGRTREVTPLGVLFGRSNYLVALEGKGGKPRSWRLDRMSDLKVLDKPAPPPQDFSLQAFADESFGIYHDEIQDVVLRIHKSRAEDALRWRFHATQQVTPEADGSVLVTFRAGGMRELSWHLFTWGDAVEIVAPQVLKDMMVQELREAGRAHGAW
Kind of data set: fluorescence polarization.

For another data set, the target named is T4, DriD(L10E) (Caulobacter crescentus, UniProt Q9A999 5-331, L14E).
T4 sequence: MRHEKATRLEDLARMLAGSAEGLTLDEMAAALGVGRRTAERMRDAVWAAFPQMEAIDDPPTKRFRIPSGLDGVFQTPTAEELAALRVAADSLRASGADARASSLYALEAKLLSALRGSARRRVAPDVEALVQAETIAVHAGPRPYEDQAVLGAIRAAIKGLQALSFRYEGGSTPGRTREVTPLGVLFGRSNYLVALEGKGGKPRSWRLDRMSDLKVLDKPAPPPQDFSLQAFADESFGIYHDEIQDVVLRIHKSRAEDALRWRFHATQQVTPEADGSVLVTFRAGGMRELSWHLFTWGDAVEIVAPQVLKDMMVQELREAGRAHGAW
Kind of data set: fluorescence polarization.

In a further data set the target is T5, DriD(V73P-F74P) (Caulobacter crescentus, UniProt Q9A999 5-331, V77P;F78P).
T5 sequence: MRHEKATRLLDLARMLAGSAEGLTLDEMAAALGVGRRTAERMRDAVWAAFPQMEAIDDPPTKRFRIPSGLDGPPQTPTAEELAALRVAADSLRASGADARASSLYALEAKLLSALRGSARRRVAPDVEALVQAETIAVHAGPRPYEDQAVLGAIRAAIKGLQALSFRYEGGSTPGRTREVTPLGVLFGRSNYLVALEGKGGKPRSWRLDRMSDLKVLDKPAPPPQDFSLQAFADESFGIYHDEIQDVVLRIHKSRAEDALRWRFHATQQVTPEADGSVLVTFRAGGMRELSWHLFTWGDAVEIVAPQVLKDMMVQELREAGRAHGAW
The data set is described as follows: fluorescence polarization.

The next data set addresses T6, DriD(T61A-K62A) (Caulobacter crescentus, UniProt Q9A999 5-331, T65A;K66A).
T6 sequence: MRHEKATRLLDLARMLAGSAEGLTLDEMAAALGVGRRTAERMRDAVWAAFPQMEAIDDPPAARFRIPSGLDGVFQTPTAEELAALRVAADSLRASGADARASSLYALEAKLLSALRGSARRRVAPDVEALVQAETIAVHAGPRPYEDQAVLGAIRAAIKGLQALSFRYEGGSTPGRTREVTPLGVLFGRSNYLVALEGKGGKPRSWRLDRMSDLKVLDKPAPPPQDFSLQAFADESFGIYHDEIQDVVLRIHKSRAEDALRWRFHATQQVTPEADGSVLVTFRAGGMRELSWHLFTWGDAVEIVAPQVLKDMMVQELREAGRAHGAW
Kind of data set: fluorescence polarization.

For the molecule “Caulobacter crescentus full length DriD, tag-free (natural protein)”, the stoichiometry N in [1] and in data set [2] was 2 in each case. The molecule “DriD(L10E) with His-tag (natural protein)” came in with a stoichiometry N in [3] of 2. “Caulobacter crescentus full length DriD with His-tag (natural protein)” showed a stoichiometry N in data set [4] of 2. On to “DriD(V73P-F74P) with His-tag (natural protein)”, for which the stoichiometry N in data set [5] came out at 2. Regarding TGTCTAT (ssDNA) [7mer ssDNA effector], in the data set with DriD WT [6], the binding result was “binds”.

B1: position 3/13 mutant (T3/A13 to C/G in text) (dsDNA)
DNA 1: ATACGGCAGTTACTGCCGTAT
DNA 2: ATACGGCAGTAACTGCCGTAT
On to B1, for which the dissociation constant Kd with DriD WT [7] was 7.1 ± 0.9 nM.

B2: C1/G15 to T/A (dsDNA)
DNA 1: ATATGACAGTTACTGTCATAT
DNA 2: ATATGACAGTAACTGTCATAT
The molecule B2 came in with an equilibrium dissociation constant (Kd) in the data set with DriD WT [7] of 6.9 ± 1.7 nM.

B3: C4/G12 to T/A (dsDNA)
DNA 1: ATACGATAGTTACTATCGTAT
DNA 2: ATACGATAGTAACTATCGTAT
With B3, the dissociation constant (Kd) with DriD WT [7] was 962 ± 182 nM.

B4: GC-rich center mutant (dsDNA)
DNA 1: ATACGACGGCCGCCGTCGTAT
DNA 2: ATACGACGGCGGCCGTCGTAT
Take B4: the binding signal with DriD WT [8] was determined as 20 fold reduction vs WT site.

B5: driD promoter 21 bp site (FP) (dsDNA)
DNA 1: ATACGACAGTTACTGTCGTAT
DNA 2: ATACGACAGTAACTGTCGTAT
B5: the binding signal was 83 fold reduction vs WT protein with DriD(E40K) and 7 fold reduction vs WT protein with DriD(E40A). Also, the dissociation constant (Kd) with DriD(L10E) came out at 120 ± 23.6 nM; with DriD(V73P-F74P), 133 ± 10.4 nM; in the data set with DriD WT [7] it was 1.6 ± 0.04 nM; with DriD(T61A-K62A) it was 1200 ± 200 nM.

B6: G2/C14 to A/T (dsDNA)
DNA 1: ATACAATAGTTACTATTGTAT
DNA 2: ATACAATAGTAACTATTGTAT
As to B6, the Kd with DriD WT [7] was 512 ± 227 nM.

A word on the stoichiometry N: it is the number of molecules, sites or subunits per partner or assembly. Usually Kd stands for the concentration at which binding is half-saturated. Read a low Kd as a tighter complex.
